Assay results published in publication PMC7092869 (Biochemical and Biophysical Research Communications, 2018).

Target: the molecule itself
Assay: SEC + AUC

B1: HCoV-229E fusion core (FC1), HR1-linker-HR2 single chain (domain or fragment)
chain: ENQKILAASFNKAMTNIVDAFTGVNDAITQTSQALQTVATALNKIQDVVNQQGNSLNHLTSQLRQNFQLVPRGSGGSGGSGGLEVLFQGPDLVVEQYNQTILNLTSEISTLENKSAELNYTVQKLQTLIDNINSTLVDLKWL
stoichiometry N: 3
